{"source": "paper PMC4395007", "target": "BG505 SOSIP.664 gp140 trimer (HIV-1) (UniProt Q2N0S6)", "test": "negative-stain electron microscopy", "data": [{"substance": "CAP256-VRC26.09 Fab", "values": [{"measurement": "stoichiometry N (Fab per trimer)", "result": 1}]}]}
